Results on 1 protein are retold here after patent US20240425618A1 (YOUCARE PHARMACEUTICAL GROUP, published 2024).

This data set addresses polypeptide N52 simulating a target sequence (SARS-CoV-2, N-terminal acetyl (Ac); C-terminal amide (NH2)).

B1: lipopeptide IPB24 (peptide)
peptide: SVVNIQKEIDRLNEVAKNLNESLIDLQELGKYEQYIKK
modifications: N-terminal acetyl (Ac); flexible linker PEG4 (from Fmoc-NH-PEG4-CH2CH2COOH) between the antiviral polypeptide sequence and the C-terminal K; cholesteryl hemisuccinate on the C-terminal K; C-terminal amide (NH2)
As to B1, the “Tm of the complex” value was 90 °C.
